Assay results as given in CN116239682A (WUHAN INST OF BIOLOGICAL PRODUCTS CO LTD, dated 2023).

Columns and labels:
[1] = target: T1, CV-A4结构蛋白VP1的1号肽段 (VP1前1-15氨基酸) (Coxsackievirus A4); test: indirect ELISA on coated overlapping VP1 peptides, 7H11E 1μg/ml
T1 construct: Synthetic peptide; also called VP1 1-15
T1 peptide: GDAIADAIQNTVTTT

VP1-7A-G = target: T2, VP1-7A-G (Coxsackievirus A4); test: indirect ELISA on coated mutant peptide (+ means ELISA positive)
T2 construct: Synthetic single-site mutant peptide; also called VP1 1-15 peptide, position 7 A-G
T2 peptide: GDAIADGIQNTVTTT

VP1-8I-G = target: T3, VP1-8I-G (Coxsackievirus A4); test: as above
T3 construct: Synthetic single-site mutant peptide; also called VP1 1-15 peptide, position 8 I-G
T3 peptide: GDAIADAGQNTVTTT

VP1-9Q-G = target: T4, VP1-9Q-G (Coxsackievirus A4); test: as above
T4 construct: Synthetic single-site mutant peptide; also called VP1 1-15 peptide, position 9 Q-G
T4 peptide: GDAIADAIGNTVTTT

VP1-10N-G = target: T5, VP1-10N-G (Coxsackievirus A4); test: as above
T5 construct: Synthetic single-site mutant peptide; also called VP1 1-15 peptide, position 10 N-G
T5 peptide: GDAIADAIQGTVTTT

VP1-11T-G = target: T6, VP1-11T-G (Coxsackievirus A4); test: as above
T6 construct: Synthetic single-site mutant peptide; also called VP1 1-15 peptide, position 11 T-G
T6 peptide: GDAIADAIQNGVTTT

VP1-12V-G = target: T7, VP1-12V-G (Coxsackievirus A4); test: as above
T7 construct: Synthetic single-site mutant peptide; also called VP1 1-15 peptide, position 12 V-G
T7 peptide: GDAIADAIQNTGTTT

VP1-13T-G = target: T8, VP1-13T-G (Coxsackievirus A4); test: as above
T8 construct: Synthetic single-site mutant peptide; also called VP1 1-15 peptide, position 13 T-G
T8 peptide: GDAIADAIQNTVGTT

VP1-14T-G = target: T9, VP1-14T-G (Coxsackievirus A4); test: as above
T9 construct: Synthetic single-site mutant peptide; also called VP1 1-15 peptide, position 14 T-G
T9 peptide: GDAIADAIQNTVTGT

VP1-15T-G = target: T10, VP1-15T-G (Coxsackievirus A4); test: as above
T10 construct: Synthetic single-site mutant peptide; also called VP1 1-15 peptide, position 15 T-G
T10 peptide: GDAIADAIQNTVTTG

VP1-5A-G = target: T11, VP1-5A-G (Coxsackievirus A4); test: as above
T11 construct: Synthetic single-site mutant peptide; also called VP1 1-15 peptide, position 5 A-G
T11 peptide: GDAIGDAIQNTVTTT

VP1-2D-G = target: T12, VP1-2D-G (Coxsackievirus A4); test: indirect ELISA on coated mutant peptide (- means ELISA negative)
T12 construct: Synthetic single-site mutant peptide; also called VP1 1-15 peptide, position 2 D-G
T12 peptide: GGAIADAIQNTVTTT

VP1-3A-G = target: T13, VP1-3A-G (Coxsackievirus A4); test: as above
T13 construct: Synthetic single-site mutant peptide; also called VP1 1-15 peptide, position 3 A-G
T13 peptide: GDGIADAIQNTVTTT

VP1-4I-G = target: T14, VP1-4I-G (Coxsackievirus A4); test: as above
T14 construct: Synthetic single-site mutant peptide; also called VP1 1-15 peptide, position 4 I-G
T14 peptide: GDAGADAIQNTVTTT

VP1-6D-G = target: T15, VP1-6D-G (Coxsackievirus A4); test: as above
T15 construct: Synthetic single-site mutant peptide; also called VP1 1-15 peptide, position 6 D-G
T15 peptide: GDAIAGAIQNTVTTT

B1: 单克隆抗体7H11E (antibody, V domains shown)
VH: SGPGLVAPSQSLSITCTVSGFSLPSYDVHWVRQPPGKGLEWLGVIWAGGSTHYNSALMSRLSISKDNSKSQVFLKMNSLQTDDTAMYYCAGLRAFAMDYWGQGTSVTVSS
VL: PIVLTQSPAILSVSPGERVSFSCRASQSIGTNIHWYQQGANGSPRLLIKYASESISGIPSRFSGSGSGTDFTLSINSVESEDIADYYCQQSNSWPWTFGGGTKLEIQR
notes: Mouse hybridoma antibody purified from ascites, IgG2b subtype; also called 7H11E单克隆抗体
**Q.** Does B1 bind [1]?
**A.** binds

**Q.** Does B1 bind (VP1-7A-G)?
**A.** binds

**Q.** Does B1 bind (VP1-8I-G)?
**A.** binds

**Q.** Does B1 bind (VP1-9Q-G)?
**A.** binds

**Q.** Does B1 bind (VP1-10N-G)?
**A.** binds

**Q.** Does B1 bind (VP1-11T-G)?
**A.** binds

**Q.** Does B1 bind (VP1-12V-G)?
**A.** binds

**Q.** Does B1 bind (VP1-13T-G)?
**A.** binds

**Q.** Does B1 bind (VP1-14T-G)?
**A.** binds

**Q.** Does B1 bind (VP1-15T-G)?
**A.** binds

**Q.** Does B1 bind (VP1-5A-G)?
**A.** binds

**Q.** Does B1 bind (VP1-2D-G)?
**A.** no binding

**Q.** Does B1 bind (VP1-3A-G)?
**A.** no binding

**Q.** Does B1 bind (VP1-4I-G)?
**A.** no binding

**Q.** Does B1 bind (VP1-6D-G)?
**A.** no binding
